Publication PMC5749897
Where two headings read alike, the source gives them in different places.

Key:
[1] = target: E1E2 F627A, ELISA antigen (transfected cell lysate) (hepatitis C virus genotype 1a, strain H77); assay: ELISA
[2] = target: E1E2 I622A, ELISA antigen (transfected cell lysate) (hepatitis C virus genotype 1a, strain H77); assay: ELISA
[3] = target: E1E2 D279A (H77 alanine-scanning library clone) (hepatitis C virus genotype 1a, strain H77); assay: flow cytometry on cells
[4] = target: E1E2 G278A (H77 alanine-scanning library clone) (hepatitis C virus genotype 1a, strain H77); assay: flow cytometry on cells
[5] = target: E1E2 I622A (H77 alanine-scanning library clone) (hepatitis C virus genotype 1a, strain H77); assay: flow cytometry on cells
[6] = target: E1E2 W616A (H77 alanine-scanning library clone) (hepatitis C virus genotype 1a, strain H77); assay: flow cytometry on cells
[7] = target: E1E2 Y276A (H77 alanine-scanning library clone) (hepatitis C virus genotype 1a, strain H77); assay: flow cytometry on cells
[8] = target: E1E2 Y613A (plasmid H77c, no V5 tag) (hepatitis C virus genotype 1a, strain H77); assay: flow cytometry on cells
[9] = target: soluble WT E2c (E2 core domain); assay: ELISA; settings: first point of the titration, dilution 1/1; parent: est. 0.42; read off a plot
[10] = target: CD81-Fc (K124T), a mutant that reduces CD81 dimerization (UniProt P60033); assay: ELISA; settings: first point of the titration, dilution 1/1; parent: est. 0.65; read off a plot
HCV1 [11] = assay: ELISA; settings: first point of the titration, dilution 1/100; parent: est. 1.3; read off a plot
[12] = target: recombinant CD81-LEL Fc-fusion protein; assay: ELISA; settings: first point of the titration, dilution 1/1; parent: est. 0.42; read off a plot
AR1A = assay: flow cytometry
AP33 [13] = assay: flow cytometry; settings: read off a plot
AR2A = assay: flow cytometry; settings: read off a plot
AR3A = assay: flow cytometry; settings: read off a plot
HCV1 [14] = assay: flow cytometry; settings: read off a plot
A4 [15] = assay: flow cytometry; settings: read off a plot
AR1B = assay: flow cytometry
A4 [16] = assay: flow cytometry or ELISA; settings: read off a plot
AP33 [17] = assay: flow cytometry or ELISA; settings: read off a plot
HCV1 [18] = assay: flow cytometry or ELISA; settings: read off a plot

Chain of CD81-Fc (K124T), a mutant that reduces CD81 dimerization (P60033 whole entry K124T, looked up, tested part not stated): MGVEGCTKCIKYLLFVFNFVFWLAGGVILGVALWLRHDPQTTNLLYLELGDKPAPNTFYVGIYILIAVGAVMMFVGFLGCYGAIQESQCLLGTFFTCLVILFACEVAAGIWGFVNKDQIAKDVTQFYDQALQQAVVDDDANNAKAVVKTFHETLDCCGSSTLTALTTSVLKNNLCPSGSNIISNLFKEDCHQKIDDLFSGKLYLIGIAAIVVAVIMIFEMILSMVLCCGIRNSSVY

Work on “recombinant CD81-LEL Fc-fusion protein (Fc fusion)” yielded an enhancement of binding over wild type [1] of 13%, an enhancement of binding over wild type [2] of 56% and a % CD81 binding (of wild type) [3] of 48%. The % CD81 binding (of wild type) [4] was 50%, the enhancement of binding over wild type [5] was 49% and the % binding activity [6] was < 3%. For the same substance, the % of wild-type reactivity (% of wild-type reactivity) [6] was < 25, the % CD81 binding (of wild type) [7] was 50% and the % binding activity [8] was < 3%. For the same substance, the % of wild-type reactivity (% of wild-type reactivity) [8] was < 25.
With “recombinant CD81-LEL Fc-fusion protein K124T” the response [9] was 0.65 OD450.
In the case of soluble WT E2c (E2 core domain) F627A, the response [10] is reported as 0.62 OD450, the response (HCV1 [11]) is reported as 1.3 OD450 and the response [12] is reported as 0.38 OD450.
For soluble WT E2c (E2 core domain) I622A, the response [10] was 1.5 OD450, the response (HCV1 [11]) was 1.3 OD450 and the response [12] was 1.4 OD450.
“soluble WT E2c (E2 core domain) I622A; F627A” gave a response [10] of 1.2 OD450, a response (HCV1 [11]) of 1.3 OD450 and a response [12] of 0.94 OD450.
For “wild-type HCV E1E2 (genotype 1a, strain H77) expression construct with C-terminal V5 epitope tag C503A”, the percent of parent (AR1A; read off a plot) was 200 % of WT.
“wild-type HCV E1E2 (genotype 1a, strain H77) expression construct with C-terminal V5 epitope tag G440A” was tested, and the percent of parent (AP33 [13]) was 81 % of WT, the percent of parent (AR1A; read off a plot) was 84 % of WT and the percent of parent (AR2A) was 82 % of WT. For the same substance, the percent of parent (AR3A) was 20 % of WT and the percent of parent (HCV1 [14]) was 84 % of WT.
For “wild-type HCV E1E2 (genotype 1a, strain H77) expression construct with C-terminal V5 epitope tag G495A”, the percent of parent (AR1A; read off a plot) was 26 % of WT and the percent of parent (HCV1 [14]) was 92 % of WT.
“wild-type HCV E1E2 (genotype 1a, strain H77) expression construct with C-terminal V5 epitope tag G547A” was tested, and the percent of parent (A4 [15]) was 74 % of WT, the percent of parent (AR1A; read off a plot) was 18 % of WT and the percent of parent (AR1B; read off a plot) was 22 % of WT. For the same substance, the percent of parent (HCV1 [14]) was 44 % of WT.
“wild-type HCV E1E2 (genotype 1a, strain H77) expression construct with C-terminal V5 epitope tag L438A” was tested, and the percent of parent (AP33 [13]) was 76 % of WT and the percent of parent (HCV1 [14]) was 75 % of WT.
With “wild-type HCV E1E2 (genotype 1a, strain H77) expression construct with C-terminal V5 epitope tag N548A” the percent of parent (AR1A; read off a plot) was 23 % of WT and the percent of parent (AR1B) was < 0 % of WT.
With “wild-type HCV E1E2 (genotype 1a, strain H77) expression construct with C-terminal V5 epitope tag P544A” the percent of parent (AR1A; read off a plot) was 9 % of WT, the percent of parent (AR1B; read off a plot) was 5 % of WT and the percent of parent (HCV1 [14]) was 45 % of WT.
In the case of “wild-type HCV E1E2 (genotype 1a, strain H77) expression construct with C-terminal V5 epitope tag P545A”, the percent of parent (AR1A; read off a plot) is reported as 18 % of WT, the percent of parent (AR1B; read off a plot) is reported as 6 % of WT and the percent of parent (HCV1 [14]) is reported as 92 % of WT.
With “wild-type HCV E1E2 (genotype 1a, strain H77) expression construct with C-terminal V5 epitope tag T518A” the percent of parent (AP33 [13]) was 106 % of WT, the percent of parent (AR1A; read off a plot) was 100 % of WT and the percent of parent (AR2A) was 140 % of WT. The percent of parent (HCV1 [14]) was 100 % of WT.
In the case of “wild-type HCV E1E2 (genotype 1a, strain H77) expression construct with C-terminal V5 epitope tag W437A”, the percent of parent (AP33 [13]) is reported as 77 % of WT and the percent of parent (HCV1 [14]) is reported as 95 % of WT.
“wild-type HCV E1E2 (genotype 1a, strain H77) expression construct with C-terminal V5 epitope tag W549A” was tested, and the percent of parent (AR1A) was < 0 % of WT and the percent of parent (AR1B) was < 0 % of WT.
For “wild-type HCV E1E2 (genotype 1a, strain H77) expression construct with C-terminal V5 epitope tag Y485A”, the percent of parent (AP33 [13]) was 104 % of WT and the percent of parent (AR1A; read off a plot) was 43 % of WT.
“wild-type HCV E1E2 (genotype 1a, strain H77) expression construct with C-terminal V5 epitope tag Y632A” was tested, and the percent of parent (AR1A) was < 0 % of WT.
“wild-type HCV E1E2, plasmid H77c (no V5 tag) C272A” was tested, and the percent of parent (A4 [16]) was 93 % of WT, the percent of parent (AP33 [17]) was 85 % of WT and the percent of parent (HCV1 [18]) was 98 % of WT.
With “wild-type HCV E1E2, plasmid H77c (no V5 tag) C452A” the percent of parent (A4 [16]) was 93 % of WT, the percent of parent (AP33 [17]) was 60 % of WT and the percent of parent (HCV1 [18]) was 77 % of WT.
“wild-type HCV E1E2, plasmid H77c (no V5 tag) D346A” was tested, and the percent of parent (A4 [16]) was 95 % of WT, the percent of parent (AP33 [17]) was 100 % of WT and the percent of parent (HCV1 [18]) was 98 % of WT.
In the case of “wild-type HCV E1E2, plasmid H77c (no V5 tag) K562A”, the percent of parent (A4 [16]) is reported as 77 % of WT, the percent of parent (AP33 [17]) is reported as 75 % of WT and the percent of parent (HCV1 [18]) is reported as 95 % of WT.
With “wild-type HCV E1E2, plasmid H77c (no V5 tag) Q336A” the percent of parent (A4 [16]) was 88 % of WT, the percent of parent (AP33 [17]) was 80 % of WT and the percent of parent (HCV1 [18]) was 88 % of WT.
In the case of “wild-type HCV E1E2, plasmid H77c (no V5 tag) R237A”, the percent of parent (A4 [16]) is reported as 82 % of WT, the percent of parent (AP33 [17]) is reported as 110 % of WT and the percent of parent (HCV1 [18]) is reported as 105 % of WT.
For “wild-type HCV E1E2, plasmid H77c (no V5 tag) T396A”, the percent of parent (A4 [16]) was 85 % of WT, the percent of parent (AP33 [17]) was 68 % of WT and the percent of parent (HCV1 [18]) was 98 % of WT.
In the case of “wild-type HCV E1E2, plasmid H77c (no V5 tag) W712A”, the percent of parent (A4 [16]) is reported as 80 % of WT, the percent of parent (AP33 [17]) is reported as 81 % of WT and the percent of parent (HCV1 [18]) is reported as 82 % of WT.
For “wild-type HCV E1E2, plasmid H77c (no V5 tag) Y624A”, the percent of parent (A4 [16]) was 43 % of WT and the percent of parent (AP33 [17]) was 38 % of WT.
